Patent US20070275900

How the values were obtained:
Fmoc-Val-Pro-Doxorubicin = biological target: T1, Fmoc-Val-Pro-Doxorubicin
T1 chain: VP

H-Asp-Pro-NAP-TSAO = biological target: T2, H-Asp-Pro-NAP-TSAO
T2 chain: DP

H-Gly-3.4Hypro-NAP-TSAO = biological target: T3, H-Gly-3.4Hypro-NAP-TSAO
T3 chain: GP

H-Gly-Pro-NAP-TSAO = biological target: T4, H-Gly-Pro-NAP-TSAO
T4 chain: GP

[1] = biological target: T5, H-Lys-Pro-Asp-Pro-NAP-TSAO
T5 chain: KPDP

H-Lys-Pro-NAP-TSAO = biological target: T6, H-Lys-Pro-NAP-TSAO
T6 chain: KP

H-Tyr-Pro-NAP-TSAO = biological target: T7, H-Tyr-Pro-NAP-TSAO
T7 chain: YP

H-Val-4HyPro-NAP-TSAO = biological target: T8, H-Val-4HyPro-NAP-TSAO
T8 chain: VP

H-Val-Ala-NAP-TSAO = biological target: T9, H-Val-Ala-NAP-TSAO
T9 chain: VA

[2] = biological target: T10, H-Val-Ala-Val-Pro-NAP-TSAO
T10 chain: VAVP

H-Val-D-Pro-NAP-TSAO = biological target: T11, H-Val-D-Pro-NAP-TSAO
T11 chain: VP

H-Val-Gly-NAP-TSAO = biological target: T12, H-Val-Gly-NAP-TSAO
T12 chain: VG

H-Val-Leu-NAP-TSAO = biological target: T13, H-Val-Leu-NAP-TSAO
T13 chain: VL

H-Val-Phe-NAP-TSAO = biological target: T14, H-Val-Phe-NAP-TSAO
T14 chain: VF

[3] = biological target: T15, H-Val-Pro-6-Aminoquinoline
T15 chain: VP

H-Val-Pro-Doxorubicin = biological target: T16, H-Val-Pro-Doxorubicin
T16 chain: VP

H-Val-Pro-NAP-TSAO = biological target: T17, H-Val-Pro-NAP-TSAO
T17 chain: VP

H-Val-Pro-Val-NAP-TSAO = biological target: T18, H-Val-Pro-Val-NAP-TSAO
T18 chain: VPV

H-Val-Pro-Val-NHP-TSAO = biological target: T19, H-Val-Pro-Val-NHP-TSAO
T19 chain: VPV

[4] = biological target: T20, H-Val-Pro-Val-Pro-NAP-TSAO
T20 chain: VPVP

[5] = biological target: T21, Me-NH-Val-Pro-Val-NHP-TSAO
T21 chain: VPV

[6] = biological target: T22, NH2-Val-HyPro(Bzl)-NAP-TSAO
T22 chain: VP

Val-Pro-PI 1 = biological target: T23, Val-Pro-PI 1
T23 chain: VP

[7] = biological target: T24, Z-Val-Pro-Val-Pro-NAP-TSAO
T24 chain: VPVP

B1: purified CD26 (dipeptidyl-peptidase IV, EC 3.4.14.5) (protein)
chain: MKTPWKVLLGLLGAAALVTIITVPVVLLNKGTDDATADSRKTYTLTDYLKNTYRLKLYSLRWISDHEYLYKQENNILVFNAEYGNSSVFLENSTFDEFGHSINDYSISPDGQFILLEYNYVKQWRHSYTASYDIYDLNKRQLITEERIPNNTQWVTWSPVGHKLAYVWNNDIYVKIEPNLPSYRITWTGKEDIIYNGITDWVYEEEVFSAYSALWWSPNGTFLAYAQFNDTEVPLIEYSFYSDESLQYPKTVRVPYPKAGAVNPTVKFFVVNTDSLSSVTNATSIQITAPASMLIGDHYLCDVTWATQERISLQWLRRIQNYSVMDICDYDESSGRWNCLVARQHIEMSTTGWVGRFRPSEPHFTLDGNSFYKIISNEEGYRHICYFQIDKKDCTFITKGTWEVIGIEALTSDYLYYISNEYKGMPGGRNLYKIQLSDYTKVTCLSCELNPERCQYYSVSFSKEAKYYQLRCSGPGLPLYTLHSSVNDKGLRVLEDNSALDKMLQNVQMPSKKLDFIILNETKFWYQMILPPHFDKSKKYPLLLDVYAGPCSQKADTVFRLNWATYLASTENIIVASFDGRGSGYQGDKIMHAINRRLGTFEVEDQIEAARQFSKMGFVDNKRIAIWGWSYGGYVTSMVLGSGSGVFKCGIAVAPVSRWEYYDSVYTERYMGLPTPEDNLDHYRNSTVMSRAENFKQVEYLLIHGTADDNVHFQQSAQISKALVDVGVDFQAMWYTDEDHGIASSTAHQHIYTHMSHFIKQCFSLP
% conversion, 1 h (Fmoc-Val-Pro-Doxorubicin): 0%
% conversion, 4 h (Fmoc-Val-Pro-Doxorubicin): 0%
% conversion, 24 h (Fmoc-Val-Pro-Doxorubicin): 0%
Conversion %, 4 h (H-Asp-Pro-NAP-TSAO): 7.9%
Conversion %, 24 h (H-Asp-Pro-NAP-TSAO): 30%
Conversion %, 4 h (H-Gly-3.4Hypro-NAP-TSAO): 0%
Conversion %, 24 h (H-Gly-3.4Hypro-NAP-TSAO): 0%
Conversion %, 1 h (H-Gly-Pro-NAP-TSAO): 5%
Conversion %, 4 h (H-Gly-Pro-NAP-TSAO): 20%
Conversion %, 24 h (H-Gly-Pro-NAP-TSAO): 58%
% conversion, 1 h, to the dipeptide intermediate (a) [1]: 88%
% conversion, 1 h, to the parent compound (b) [1]: 2.1%
% conversion, 4 h, to the dipeptide intermediate (a) [1]: 86%
% conversion, 4 h, to the parent compound (b) [1]: 6%
% conversion, 24 h, to the dipeptide intermediate (a) [1]: 74%
% conversion, 24 h, to the parent compound (b) [1]: 26%
Conversion %, 4 h (H-Lys-Pro-NAP-TSAO): 85%
Conversion %, 24 h (H-Lys-Pro-NAP-TSAO): 99%
Conversion %, 1 h (H-Tyr-Pro-NAP-TSAO): 43%
Conversion %, 4 h (H-Tyr-Pro-NAP-TSAO): 56%
Conversion %, 24 h (H-Tyr-Pro-NAP-TSAO): 79%
Conversion %, 1 h (H-Val-4HyPro-NAP-TSAO): 4.1%
Conversion %, 4 h (H-Val-4HyPro-NAP-TSAO): 18%
Conversion %, 24 h (H-Val-4HyPro-NAP-TSAO): 53%
Conversion %, 1 h (H-Val-Ala-NAP-TSAO): 0%
Conversion %, 4 h (H-Val-Ala-NAP-TSAO): 6.5%
Conversion %, 24 h (H-Val-Ala-NAP-TSAO): 35%
% conversion, 1 h [2]: 12%
% conversion, 4 h [2]: 54%
% conversion, 24 h [2]: 70%
Conversion %, 1 h (H-Val-D-Pro-NAP-TSAO): 0%
Conversion %, 4 h (H-Val-D-Pro-NAP-TSAO): 1%
Conversion %, 24 h (H-Val-D-Pro-NAP-TSAO): 2%
Conversion %, 1 h (H-Val-Gly-NAP-TSAO): 0%
Conversion %, 4 h (H-Val-Gly-NAP-TSAO): 0%
Conversion %, 24 h (H-Val-Gly-NAP-TSAO): 0%
Conversion %, 1 h (H-Val-Leu-NAP-TSAO): 0%
Conversion %, 4 h (H-Val-Leu-NAP-TSAO): 0%
Conversion %, 24 h (H-Val-Leu-NAP-TSAO): 0%
Conversion %, 1 h (H-Val-Phe-NAP-TSAO): 0%
Conversion %, 4 h (H-Val-Phe-NAP-TSAO): 0%
Conversion %, 24 h (H-Val-Phe-NAP-TSAO): 0%
% conversion, 1 h [3]: 99%
% conversion, 4 h [3]: 100%
% conversion, 24 h [3]: 100%
% conversion, 1 h (H-Val-Pro-Doxorubicin): 78%
% conversion, 4 h (H-Val-Pro-Doxorubicin): 95%
% conversion, 24 h (H-Val-Pro-Doxorubicin): 97%
Conversion %, 1 h (H-Val-Pro-NAP-TSAO): 37%
Conversion %, 4 h (H-Val-Pro-NAP-TSAO): 62%
Conversion %, 24 h (H-Val-Pro-NAP-TSAO): 61%
conversion of 50 µM CAM-405 to CAM-212 by 5.7 mUnits purified CD26, 30 min (HPLC) (H-Val-Pro-NAP-TSAO): fifty percent of the TSAO dipeptide derivative was converted to CAM-212 within 30 min
conversion of 50 µM CAM-405 to CAM-212 by 5.7 mUnits purified CD26, first 10 min (HPLC) (H-Val-Pro-NAP-TSAO): Within the first 10 min of the reaction, at least 20% of CAM-405 had been converted to CAM-212
hydrolysis of 50 µM CAM-405 by 5.7 mUnits purified CD26, 60 min (HPLC) (H-Val-Pro-NAP-TSAO): ˜67% of CAM-405 was hydrolysed after 60 min
Conversion %, 4 h (H-Val-Pro-Val-NAP-TSAO): 51%
Conversion %, 24 h (H-Val-Pro-Val-NAP-TSAO): 70%
Conversion %, 1 h (H-Val-Pro-Val-NHP-TSAO): 33%
Conversion %, 4 h (H-Val-Pro-Val-NHP-TSAO): 60%
% conversion, 1 h [4]: 43%
% conversion, 4 h [4]: 86%
% conversion, 24 h [4]: 88%
Conversion %, 1 h [5]: 0%
Conversion %, 4 h [5]: 0%
Conversion %, 24 h [5]: 0%
Conversion %, 4 h [6]: 0%
Conversion %, 24 h [6]: 0%
conversion of PI-2 to PI-1 by purified CD26 (Val-Pro-PI 1): Within 60 min, PI-2 was completely converted to PI-1 by purified CD26
% conversion, 1 h [7]: 0%
% conversion, 4 h [7]: 0%
% conversion, 24 h [7]: 0%
